According to patent US20250144214A1 (US Dept. of Health and Human Services, published 2025):
Read-outs that look alike come from different tables or passages of the source.

T1: glypican-2 (GPC2), as used in the binding affinity test (UniProt Q8N158 24-553, limits assumed)
T1 construct: It states neither the form of the antigen nor the assay
T1 sequence (looked up): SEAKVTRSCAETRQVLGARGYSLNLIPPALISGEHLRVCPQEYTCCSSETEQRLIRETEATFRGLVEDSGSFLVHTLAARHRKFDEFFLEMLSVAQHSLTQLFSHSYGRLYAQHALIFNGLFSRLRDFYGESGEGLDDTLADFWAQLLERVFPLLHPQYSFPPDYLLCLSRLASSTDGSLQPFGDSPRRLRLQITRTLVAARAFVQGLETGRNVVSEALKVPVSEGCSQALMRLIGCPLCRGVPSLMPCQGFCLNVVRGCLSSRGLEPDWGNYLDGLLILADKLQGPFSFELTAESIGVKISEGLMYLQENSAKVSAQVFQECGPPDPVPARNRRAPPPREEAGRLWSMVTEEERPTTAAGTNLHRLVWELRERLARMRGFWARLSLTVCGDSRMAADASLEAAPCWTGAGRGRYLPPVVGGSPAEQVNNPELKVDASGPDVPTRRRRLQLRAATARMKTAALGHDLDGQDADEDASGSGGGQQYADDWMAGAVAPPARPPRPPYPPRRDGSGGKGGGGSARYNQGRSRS


What was measured:
[1] = target: T1, glypican-2 (GPC2), as used in the …; experiment: binding affinity for GPC2; method not stated (graphs in FIGS. 7A-7B)
[2] = target: T1, glypican-2 (GPC2), as used in the …; experiment: sensorgrams, Response (nm) against Time (unit inferred), traces at 200, 100 and 50 nM; instrument and immobilised partner not stated
[3] = target: T1, glypican-2 (GPC2), as used in the …; experiment: as above; remark: listed apart in the source

Row | Binder | binding affinity [1] [nM] | Kd [2] [nM] | Kd [3] [nM]
1 | hCT3-2 (humanized CT3 antibody) (antibody, V domains shown) VH: QVQLVQSGAEVKKPGASVKVSCKASRFTFTDYNIHWVRQAPGQRLEWIGYINPNNGDIFYKQKFNGRVTITRDTSASTAYMELSSLRSEDTAVYYCVRSSNIRYTFDRFFDVWGQGTLVTVS VL: DVVMTQSPAFLSVTPGEKVTITCRASSSVNYIYWYQQKPDQAPKLWIYYTSNLAPGVPSRFSGSGSGTDFTFTISSLEAEDAATYYCQQFSSSPSTFGQGTKLEIK | 3.6 | 3.6 | 
2 | hCT3-4 (humanized CT3 antibody) (antibody, V domains shown) VH: QVQLVQSGAEVKKPGASVKVSCKASRFTFTDYNIHWVRQAPGQRLEWIGYINPNNGDIFYKQKFNGRVTITRDTSASTAYMELSSLRSEDTAVYYCVRSSNIRYTFDRFFDVWGQGTLVTVS VL: EIVLTQSPATLSLSPGERATLSCRASSSVNYIYWYQQKPGQAPRLWIYYTSNLAPGIPARFSGSGSGTDFTLTISSLEPEDFAVYYCQQFSSSPSTFGQGTKLEIK | 3.3 |  | 3.3
3 | hCT3-3 (humanized CT3 antibody) (antibody, V domains shown) VH: QVQLVQSGAEVKKPGASVKVSCKASRFTFTDYNIHWVRQAPGQGLEWIGYINPNNGDIFYKQKFNGKATMTVDTSTSTVYMELSSLRSEDTAVYYCVRSSNIRYTFDRFFDVWGQGTLVTVS VL: DIQMTQSPSSLSASVGDRVTITCRASSSVNYIYWYQQKSGKAPKLWIYYTSNLAPGVPSRFSGSGSGTDFTLTISSLQPEDFATYYCQQFSSSPSTFGQGTKLEIK | 2.5 |  | 2.5
4 | CT3 antibody (parental murine GPC2-specific monoclonal antibody) (antibody, V domains shown, also called parental CT3 antibody; murine antibody CT3) VH: EVQLQQSGPELVKPGASVKMSCKASRFTFTDYNIHWVKQSPGKTLEWIGYINPNNGDIFYKQKFNGKATLTINKSSNTAYMELRSLTSEDSAVYYCVRSSNIRYTFDRFFDVWGTGTTVTVSS VL: ENVLTQSPAIMSASLGEKVTMSCRASSSVNYIYWYQQKSDASPKLWIYYTSNLAPGVPARFSGSGSGNSYSLTISSMEGEDAATYYCQQFSSSPSTFGTGTKLELK | 2.2 |  | 
5 | hCT3-1 (humanized CT3 antibody) (antibody, V domains shown) VH: QVQLVQSGAEVKKPGASVKVSCKASRFTFTDYNIHWVRQAPGQGLEWIGYINPNNGDIFYKQKFNGRVTLTADKSTSTAYMELSSLTSEDTAVYYCVRSSNIRYTFDRFFDVWGQGTLVTVSS VL: DVVMTQSPLSLPVTPGEPASISCRASSSVNYIYWYLQKPGQSPQLWIYYTSNLAPGVPDRFSGSGSGTDFTLKISRVEAEDVGVYYCQQFSSSPSTFGQGTKLEIK | 4 | 4 | 
